The values below come from publication PMC11735809, “Structural basis of Spliced Leader RNA recognition by the Trypanosoma brucei cap-binding complex” (Nature Communications, 2025).

The target in data set [1] is TAMRA-labeled TbCBP30 peptide comprising residues R34-G60 (Trypanosoma brucei). The experiment in a line: MST; 50 nM N-terminally TAMRA-labeled peptide mixed 1:1 with a serial dilution of TbCBC-dimer; 20 mM HEPES, 250 mM NaCl, 5 mM MgCl, 0.1 % Tween in the peptide buffer; 30 min on ice; Monolith NT.115; binding quantified from the ligand-dependent increase in the initial fluorescence; n = 3.

Data set [2] relates to TbCBP66* (Trypanosoma brucei). The experiment in a line: EMSA. As to conditions: EMSA: 20 mM HEPES pH 7.5, 50 mM NaCl, 5 mM MgCl2, Tween (0.05% in RNA buffer), RNA stock 50 nM mixed 1:1, 30 min on ice, 6% native PAGE 4 C; FP: same buffer, 0. For orientation: In EMSA bound probe runs differently from free probe, usually more slowly.
The subject of data set [3] is TbCBP66* R348E (Trypanosoma brucei). The experiment in a line: fluorescence polarization. As to conditions: EMSA: 20 mM HEPES pH 7.5, 50 mM NaCl, 5 mM MgCl2, Tween (0.05% in RNA buffer), RNA stock 50 nM mixed 1:1, 30 min on ice, 6% native PAGE 4 C; FP: same buffer, 0. On the technique in general: Polarisation of emitted light reports the rotation of a fluorescent probe.

Data set [4] has as its target T1, TbCBC-tetramer (TbCBP20-TbCBP110-TbCBP30-TbCBP66) (Trypanosoma brucei, UniProt Q585L4).
T1 construct: gene Tb06.28P18.1190; full-length subunits co-expressed in Hi5 insect cells (biGBac), HisTrap and heparin purified, tetramer 230 kDa
T1 sequence (Q585L4 1-187): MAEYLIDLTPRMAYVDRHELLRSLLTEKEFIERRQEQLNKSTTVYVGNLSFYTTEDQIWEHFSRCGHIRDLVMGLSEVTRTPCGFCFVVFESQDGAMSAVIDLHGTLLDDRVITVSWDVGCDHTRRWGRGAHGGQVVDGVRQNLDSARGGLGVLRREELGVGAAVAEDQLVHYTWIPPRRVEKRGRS
T1 sequence (Q38BU6 1-1004 partner): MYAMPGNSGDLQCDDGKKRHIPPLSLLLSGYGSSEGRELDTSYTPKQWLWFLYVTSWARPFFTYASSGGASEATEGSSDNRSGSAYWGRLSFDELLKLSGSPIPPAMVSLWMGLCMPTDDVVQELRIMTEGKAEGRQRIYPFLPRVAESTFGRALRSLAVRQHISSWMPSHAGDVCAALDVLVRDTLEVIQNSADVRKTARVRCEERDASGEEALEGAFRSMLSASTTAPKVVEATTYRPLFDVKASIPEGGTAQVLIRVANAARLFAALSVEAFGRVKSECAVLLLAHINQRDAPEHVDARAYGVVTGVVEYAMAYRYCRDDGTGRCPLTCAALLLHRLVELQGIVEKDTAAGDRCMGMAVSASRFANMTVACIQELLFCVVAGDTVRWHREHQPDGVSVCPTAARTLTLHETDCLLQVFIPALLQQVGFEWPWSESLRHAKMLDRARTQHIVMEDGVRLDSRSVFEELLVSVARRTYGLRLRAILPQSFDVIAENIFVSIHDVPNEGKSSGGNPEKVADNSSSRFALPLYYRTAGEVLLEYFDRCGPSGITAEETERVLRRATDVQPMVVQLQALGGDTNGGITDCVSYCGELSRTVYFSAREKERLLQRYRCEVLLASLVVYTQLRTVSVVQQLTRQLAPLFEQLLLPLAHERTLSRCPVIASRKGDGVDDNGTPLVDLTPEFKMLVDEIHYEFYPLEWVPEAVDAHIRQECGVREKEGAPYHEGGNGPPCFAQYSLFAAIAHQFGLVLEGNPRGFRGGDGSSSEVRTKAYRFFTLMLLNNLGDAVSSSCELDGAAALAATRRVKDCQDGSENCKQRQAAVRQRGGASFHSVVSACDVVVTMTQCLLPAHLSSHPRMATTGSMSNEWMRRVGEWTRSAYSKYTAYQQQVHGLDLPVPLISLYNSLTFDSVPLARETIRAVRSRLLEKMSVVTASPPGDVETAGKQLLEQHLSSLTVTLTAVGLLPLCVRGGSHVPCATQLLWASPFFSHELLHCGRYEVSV
T1 sequence (Q387Z0 1-270 partner): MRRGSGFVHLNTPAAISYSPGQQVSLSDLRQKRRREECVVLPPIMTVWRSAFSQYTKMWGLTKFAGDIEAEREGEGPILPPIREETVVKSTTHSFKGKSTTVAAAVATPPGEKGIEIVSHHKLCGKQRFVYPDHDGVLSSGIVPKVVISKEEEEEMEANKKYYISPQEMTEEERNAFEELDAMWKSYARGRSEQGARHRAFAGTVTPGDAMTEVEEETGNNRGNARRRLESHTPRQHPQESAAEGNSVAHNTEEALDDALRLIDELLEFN
The experiment in a line: competition pull-down on immobilised γ-aminophenyl-m7GTP resin, SDS-PAGE. It counts as binding. As to conditions: pH 7.5, 200 mM NaCl, 5 mM MgCl2, 4 °C; competitive at the cap site.

Data set [5] deals with T1, TbCBC-tetramer (TbCBP20-TbCBP110-TbCBP30-TbCBP66). The experiment in a line: cryo-EM structure, […] Å. It counts as binding. As to conditions: 2-fold excess of ligand; m7GMP part resolved in the TbCBP20 cap pocket.

As a reminder, the Kd is the concentration at which binding is half-saturated. Low readings indicate higher affinity, high ones lower affinity. In data set [1], “TbCBC-dimer (TbCBP20-TbCBP110 dimer) (complex)” registered a Kd of 980 nM.
On to “AUUAGAACAGUUUCUGUACUAUAUUG [SL-hairpin_loop (A14-G39)]”, for which the Kd in data set [2] turned out to be 390 nM.
Compound “AACUAACGCUAUUAUUAGAACAGUUUCUGUACUAUAUUG [OH-SLe 3'-6FAM (39 nt SL RNA exon, FP)]” gave a dissociation constant Kd in data set [3] of 9810 nM.
`C[n+]1cn([C@@H]2O[C@H](COP(=O)(O)OP(=O)(O)OP(=O)(O)O)[C@@H](O)[C@H]2O)c2nc(N)[nH]c(=O)c21` [m^7GTP]: the “competition pull-down on immobilised γ-aminophenyl-m7GTP resin, SDS-PAGE” value in data set [4] is on record as “m^7GTP competed efficiently with cap4-SL RNA binding to TbCBC”.
As to `C[n+]1cn([C@@H]2O[C@H](COP(=O)(O)OP(=O)(O)OP(=O)(O)OC[C@H]3O[C@@H](n4cnc5c(N)ncnc54)[C@H](O)[C@@H]3O)[C@@H](O)[C@H]2O)c2nc(N)[nH]c(=O)c21` [m^7GpppA], in data set [5], the “cryo-EM structure, 2.4 Å” value is given as “The m^7GMP portion of the cap-analog is coordinated by TbCBP20”.
